Results from patent US20260234251A1 (IMNOTECH, published 2026).

Target: T1, human CD2 (cluster of differentiation 2) (human, UniProt P06729 25-351)
T1 construct: Presented on cells: human CD8+ T cells, CD2-transduced U698M B-cell lymphoma cells, Jurkat cells and human PBMCs; also called CD2 target antigen; CD2 surface marker
T1 sequence: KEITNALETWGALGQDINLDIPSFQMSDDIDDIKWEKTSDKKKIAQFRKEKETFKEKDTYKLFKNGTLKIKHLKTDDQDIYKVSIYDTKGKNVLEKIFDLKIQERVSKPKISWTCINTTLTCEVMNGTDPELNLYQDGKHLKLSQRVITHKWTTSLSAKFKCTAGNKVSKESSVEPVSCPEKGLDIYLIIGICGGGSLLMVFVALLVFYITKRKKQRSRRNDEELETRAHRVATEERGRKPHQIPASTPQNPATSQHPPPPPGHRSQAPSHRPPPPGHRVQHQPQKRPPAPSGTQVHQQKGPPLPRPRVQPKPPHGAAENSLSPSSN
Test: flow cytometry titration on human CD8+ T cells, one-site specific binding fit, triplicates
Protocol: Determined affinity binding curves for CD2-sdAb (B) at different concentrations on human CD8+ T cells. R3b23-sdAb served as a negative control for unspecific binding (A). Binding of CD2-sdAb (B) is shown as a fraction of the maximum specific binding (Bₘₐₓ) and the binding intensity of R3b23-sdAb (A) is shown via the MFI at the different concentrations. Measurements were performed in triplicates and data is depicted on a semi-logarithmic scale. The dissociation constant (Ko) for CD2 was calculated based of one-site specific binding and is 2.3×10⁻⁹ [M].

B1: anti-CD2 single domain antibody according to SEQ ID No. 18 (VHH)
VHH: QVQLQESGGGSVQPGGSLRLSCTVSGRTFSNYAVGWFRQAPGKEREFVATITGSGTAYADSVKGRFTISRDNAKNTVYLQMNSLKPEDTAVYYCAATWSSGYTFRSPTQYDYWGQGTQVTVSS
notes: also called CD2-sdAb; anti-CD2-sdAb
B1 was tested, and the Kd was 2.3 nM.
